The values below come from paper PMC8471065.

Data set [1] has as its target T1, thrombin (alpha-thrombin not specified) (Homo sapiens (human plasma), UniProt P00734;P00734 328-363;364-622). The experiment in a line: EMSA; K+; only the lower (folded) band bound; 1 uM Cy5-aptamer (10 uL) annealed in 10 mM sodium cacodylate pH 7.2, 100 mM KCl in D2O; 24 pmol thrombin (2.4 eq), 30 min at 25 C; 12% native PAGE, 1x TBE + 10.
Data set [2] addresses T1, thrombin (alpha-thrombin not specified). The experiment in a line: EMSA; K+; band at start of lane (multi-species complex), no clotting inhibition; 1 uM Cy5-aptamer (10 uL) annealed in 10 mM sodium cacodylate pH 7.2, 100 mM KCl in D2O; 24 pmol thrombin (2.4 eq), 30 min at 25 C; 12% native PAGE, 1x TBE + 10. (Mobility shift assays separate free from complexed probe on a gel.)

B1: TBA-ppg-Cy5 (structured_DNA)
DNA: GGTTGGTGTGGTTGG
modifications: 3'-propargyl linker
As to B1, in data set [1], the binding result was “binds”.

B2: 3Q-ppg-Cy5 (Cy5-3Q) (structured_DNA)
DNA: GGGTTGGGTGTGGGTTGGG
modifications: 3'-propargyl linker
Regarding B2, the binding result in data set [2] was “binds”.
